Reference: patent US20180364250A1 (published 2018)
Read-outs that look alike come from different tables or passages of the source. Each block holds one binder with its values, some of them ahead of it.

Columns and labels:
[1] = target: T1, Ubiquitin (free, untagged) (UniProt P0CG48 1-76); test: fluorescence intensity
[2] = target: T1, Ubiquitin (free, untagged)
[3] = target: K63 Ub2; test: fluorescence competition with 5 nM Atto532-Ub(S20C) and 600 nM tSR
[4] = target: K48 Ub4; test: as above
[5] = target: K11 Ub2; test: as above
[6] = target: T1, Ubiquitin (free, untagged); test: competition

Kd [1]: 0.587 µM
B1: Atto532-tagged tIV L1 Cys (designed binder)
chain: MGSSHHHHHHSSGLVPRGSHMKQEVQAWDGEVRQVSKHAFSLKQLDNPARIPPSGWKCSKCDMRENLWLNLTDGSILCGRRYFDGSGGNNHAVEHYRETGYPLAVKLGTITPDGADVWSYDEDDMVLDPSLAEHLSHFGIDMLKMQKGSCAAAEEAELDLKAAIQESLREA
modifications: Atto532 fluorophore on the Cys of linker 1 (the bold C of the 2nd table)

Kd [2]: 8.4 µM
B2: Atto532-tagged IsoT^ZnF (S227C) (designed binder)
chain: MPSSHHHHHHSSGLVPRGSHMKQEVQAWDGEVRQVSKHAFSLKQLDNPARIPPSGWKCSKCDMRENLWLNLTDGSILCGRRYFDGCGGNNHAVEHYRETGYPLAVKLGTITPDGADVYSYDEDDMVLDPSLAEHLSHFGIDMLKMQK
modifications: Atto532 fluorophore on the Cys of S227C (the bold C of the 2nd table)

Ki [3]: 4.3 µM
Ki [4]: 4 µM
Ki [5]: 4.2 µM
B3: tSR (designed binder)
chain: MPSSHHHHHHSSGLVPRGSHMTEEEQIAYAMQMSLREAGGGSDLLCKKGCGYYGNPAWQGFCSKCWREEAHKCAAERAAAE

Ki [6]: 4.3 µM
B4: tSR chimeric polypeptide sensor (designed binder)
chain: B3 chain
